Where a chain is given by its changes, count along the chain named. Numbers in names are those of the source.

The Kd is the equilibrium constant for the complex coming apart.

To fix the notation:
B1: IL6R-BP142/IL6R-L (antibody, human IgG1, kappa)
heavy: QVQLQESGPGLVKPSETLSLTCAVSGHSISHDHAWSWVRQPPGEGLEWIGFISYSGITNYNPSLQGRVTISRDNSKNTLYLQMNSLRAEDTAVYYCARSLARTTAMDYWGEGTLVTVSSASTKGPSVFPLAPSSKSTSGGTAALGCLVKDYFPEPVTVSWNSGALTSGVHTFPAVLQSSGLYSLSSVVTVPSSSLGTQTYICNVNHKPSNTKVDKKVEPKSCDKTHTCPPCPAPELLGGDSVFLFPPKPKDTLMISRTPEVTCVVVDVSHEDPEVKFNWYVDGVEVHNAKTKPREEQYNSTYRVVSVLTVLHQDWLNGKEYKCKVSNNALPAPIEKTISKAKGQPREPQVYTLPPSRDELTKNQVSLTCLVKGFYPSDIAVEWESNGQPENNYKTTPPVLDSDGSFFLYSKLTVDKSRWQQGNVFSCSVMHEALHNHYTQESLSLSP
light: not shown
notes: IgG1; P238D/K326N (EU) introduced into IL6R-B3
B2: IL6R-BF209/IL6R-L (antibody, human IgG1, kappa)
heavy: B1 heavy with G239D, H270D, P273G, N328A, A332R
light: not shown
notes: Anti-IL-6 receptor IgG1 Fc variant
B3: IL6R-BF212/IL6R-L (antibody, human IgG1, kappa)
heavy: B1 heavy with E235D, H270D, P273G, Y298D, N328K, A332R
light: not shown
notes: Anti-IL-6 receptor IgG1 Fc variant; 'B233D' is read as E233D
B4: IL6R-2B251/IL6R-L (antibody, human IgG1, kappa)
heavy: B1 heavy with E235D, Y298D, N328K
light: not shown
notes: alteration printed: B233D/P238D/Y296D; also called ILGR-2B261/IL6R-L; copies: 2 + 2
B5: IL6R-BF195/IL6R-L (antibody, human IgG1, kappa)
heavy: B1 heavy with E235D, L236Y, G239D, H270D, P273G, Y298D, N328A, A332K
light: not shown
notes: copies: 2 + 2
B6: IL6R-BF201/IL6R-L (antibody, human IgG1, kappa)
heavy: B1 heavy with E235D, G239D, P273G, N328K, A332R
light: not shown
notes: alteration printed: E233D/G237D/P238D/P271G/A330R; copies: 2 + 2
B7: IL6R-BF146/IL6R-L (antibody, human IgG1, kappa)
heavy: B1 heavy with L236Y, G239D, N328A
light: not shown
notes: alteration printed: L234Y/G237D/P238D/K326A; copies: 2 + 2
B8: IL6R-BF204/IL6R-L (antibody, human IgG1, kappa)
heavy: B1 heavy with E235D, P273G, N328A, A332R
light: not shown
notes: alteration printed: B233D/P238D/P271G/K326A/A330R; copies: 2 + 2
B9: IL6R-BF207/IL6R-L (antibody, human IgG1, kappa)
heavy: B1 heavy with E235D, N328K, A332R
light: not shown
notes: alteration printed: B233D/P298D/A330R; copies: 2 + 2
B10: IL6R-2B253/IL6R-L (antibody, human IgG1, kappa)
heavy: B1 heavy with E235D, V325M, N328K
light: not shown
notes: alteration printed: B233D/P238D/V323M; copies: 2 + 2
B11: IL6R-BF132/IL6R-L (antibody, human IgG1, kappa)
heavy: B1 heavy with E235D, N328A, A332K
light: not shown
notes: alteration printed: B233D/P236D/K326A/A330K; copies: 2 + 2
B12: IL6R-BF202/IL6R-L (antibody, human IgG1, kappa)
heavy: B1 heavy with G239D, P273G, N328A, A332R
light: not shown
notes: alteration printed: G237D/P238D/P271G/K326A/A330R; copies: 2 + 2
B13: IL6R-BF196/IL6R-L (antibody, human IgG1, kappa)
heavy: B1 heavy with L236Y, H270D, P273G, N328A, A332K
light: not shown
notes: alteration printed: L234Y/P236D/H258D/P271G/K326A/A330K; copies: 2 + 2
B14: IL6R-BF200/IL6R-L (antibody, human IgG1, kappa)
heavy: B1 heavy with E235D, L236Y, G239D, P273G, N328D, A332R
light: not shown
notes: copies: 2 + 2

For the first experiment, the target named is T1, FcγRIIa type R extracellular domain with C-terminal His tag (human, UniProt P12318 34-217).
T1 construct: extracellular domain; also called FcgRIIaR; FcγRIIa R; not shown: His tag at the C terminus
T1 sequence (looked up): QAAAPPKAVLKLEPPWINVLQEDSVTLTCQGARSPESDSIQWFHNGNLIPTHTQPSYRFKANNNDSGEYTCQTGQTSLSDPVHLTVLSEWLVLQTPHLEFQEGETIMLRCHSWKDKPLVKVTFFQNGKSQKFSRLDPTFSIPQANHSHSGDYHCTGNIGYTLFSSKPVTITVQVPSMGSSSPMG
The experiment in a line: SPR (Biacore), antibody captured on chip, FcγR extracellular domain as analyte. From the text:
(§1) In the table, SEQ ID NO refers to the SEQ ID NO of the H chain of the evaluated variant, and alteration refers to the alteration introduced into IL6R-B3 (SEQ ID NO: 40). […] Furthermore, KD(IIaR)/KD(IIb) and KD(IIaH)/KD(IIb) in the table respectively represent the value obtained by dividing the KD value of each variant for FcγRIIaR by the KD value of each variant for FcγRIIb, and the value obtained by dividing the KD value of each variant for FcγRIIaH by the KD value of each variant for FcγRIIb. KD(IIb) of the parent polypeptide/KD(IIb) of the altered polypeptide refers to the value obtained by dividing the KD value of the parent polypeptide for FcγRIIb by the KD value of each variant for FcγRIIb.
(§2) Kinetic analyses for calculating the KD values of each altered antibody for FcγR were performed according to the following method. First, antibodies of interest were captured onto the above-mentioned sensor chips, and an Fcγ receptor diluted with the running buffer was allowed to interact. The Biacore™ Evaluation Software was used to globally fit the measured results to the obtained sensorgram using the 1:1 Langmuir binding model, and the association rate constant ka (L/mol/s) and the dissociation rate constant kd (1/s) were calculated; and from those values the dissociation constants KD (mol/L) were calculated.
In the case of B1, binding was characterised by a dissociation constant (Kd) of 16 µM.

Another experiment has as its target FcγRIIa type R extracellular domain with C-terminal His tag (human, UniProt P12318 34-217). The experiment is described as above.
Excerpt: as §1, §2
In turn, B2 yielded a Kd of 12 µM. That is a double-digit micromolar value.
The molecule B3 displayed an equilibrium dissociation constant (Kd) of 0.035 µM.

The next experiment concerns the target T2, FcγRIIb extracellular domain with C-terminal His tag (human, UniProt P31994 43-217).
T2 construct: extracellular domain; also called FcRIIb; FcgRIIb; not shown: His tag at the C terminus
T2 sequence (looked up): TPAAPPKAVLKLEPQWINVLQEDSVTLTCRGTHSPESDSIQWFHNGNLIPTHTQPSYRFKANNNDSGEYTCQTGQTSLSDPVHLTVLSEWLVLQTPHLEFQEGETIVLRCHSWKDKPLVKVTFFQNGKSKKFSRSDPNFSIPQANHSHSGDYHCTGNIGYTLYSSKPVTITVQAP
As to the kind of experiment: SPR (Biacore), antibody captured, FcgR analyte.
Excerpt: as §1, §2
On the technique in general: SPR reads the build-up and loss of mass on a sensor chip optically.
Turning to B4, the equilibrium dissociation constant (Kd) came out at 10 µM. This counts as double-digit micromolar.
Still for that read-out and setting: the same measure for B5: 50 µM.
Regarding B6, binding was characterised by a dissociation constant (Kd) of 40 µM.

A further experiment concerns the target T3, FcγRIIa type H extracellular domain with C-terminal His tag (human, UniProt P12318 34-217).
T3 construct: extracellular domain; also called FcRIIaH; FcgRIIaH; not shown: His tag at the C terminus
T3 sequence (looked up): T1 sequence (looked up) with R134H
The experiment in a line: SPR (Biacore), antibody captured, FcgR analyte.
Excerpt: as §1, §2
B7 registered a Kd of 10 µM.

The target of the next experiment is T4, FcγRIIa type R extracellular domain with C-terminal His tag (human, UniProt P12318 34-217).
T4 chain: T1 sequence (looked up)
As to the kind of experiment: SPR (Biacore), antibody captured, FcgR analyte.
Excerpt: as §1, §2
For the molecule B8, the dissociation constant Kd stood at 4.5 µM.
The same measure, in the same setting: with B9 the figure was 19 µM; with B5, 0.91 µM.
The same measure, in the same setting: with B10 the figure was 0.05 µM.
The same measure, in the same setting: with B11 the figure was 8 µM; with B12, 0.012 µM.
In turn, B13 returned a Kd of 0.03 µM.
The same measure, in the same setting: with B14 the figure was 0.63 µM.
B6 had a Kd of 0.84 µM. This Kd and that of the molecule before are within 1.5-fold of each other.

For a further experiment, the target named is T5, FcγRIIIa type V extracellular domain with C-terminal His tag (human, UniProt P08637 17-208).
T5 construct: extracellular domain; also called FcIIIaV; FcgRIIIaV; not shown: His tag at the C terminus
T5 sequence (P08637 17-208 F176V): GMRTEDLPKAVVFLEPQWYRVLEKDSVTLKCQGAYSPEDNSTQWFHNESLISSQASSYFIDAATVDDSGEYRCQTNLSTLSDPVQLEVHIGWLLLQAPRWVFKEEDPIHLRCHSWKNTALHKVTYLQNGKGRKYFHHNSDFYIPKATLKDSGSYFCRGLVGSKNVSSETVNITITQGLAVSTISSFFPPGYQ
The experiment in a line: SPR (Biacore), antibody captured, FcgR analyte.
Excerpt: as §1, §2
Molecule B5 came in with a dissociation constant Kd of 3.1 µM. This lies in the single-digit micromolar range.
On to B10, for which binding was characterised by a dissociation constant (Kd) of 5 µM.
Same read-out and setting: with B11 the figure was 50 µM; with B13, 5.1 µM.

Values taken from US20230174655A1 (published 2023).
